# According to US10314894B2, “Treatment of cardio-renal disease using PCSK6” (THE CLEVELAND CLINIC FOUNDATION, priority 2014, dated 2019):
# T1: corin mutant R801A (Homo sapiens, UniProt Q9Y5Q5, R801A)
# T1 construct: expressed in transfected cells; host or cells: HEK293
# T1 sequence (Q9Y5Q5 1-1042 R801A): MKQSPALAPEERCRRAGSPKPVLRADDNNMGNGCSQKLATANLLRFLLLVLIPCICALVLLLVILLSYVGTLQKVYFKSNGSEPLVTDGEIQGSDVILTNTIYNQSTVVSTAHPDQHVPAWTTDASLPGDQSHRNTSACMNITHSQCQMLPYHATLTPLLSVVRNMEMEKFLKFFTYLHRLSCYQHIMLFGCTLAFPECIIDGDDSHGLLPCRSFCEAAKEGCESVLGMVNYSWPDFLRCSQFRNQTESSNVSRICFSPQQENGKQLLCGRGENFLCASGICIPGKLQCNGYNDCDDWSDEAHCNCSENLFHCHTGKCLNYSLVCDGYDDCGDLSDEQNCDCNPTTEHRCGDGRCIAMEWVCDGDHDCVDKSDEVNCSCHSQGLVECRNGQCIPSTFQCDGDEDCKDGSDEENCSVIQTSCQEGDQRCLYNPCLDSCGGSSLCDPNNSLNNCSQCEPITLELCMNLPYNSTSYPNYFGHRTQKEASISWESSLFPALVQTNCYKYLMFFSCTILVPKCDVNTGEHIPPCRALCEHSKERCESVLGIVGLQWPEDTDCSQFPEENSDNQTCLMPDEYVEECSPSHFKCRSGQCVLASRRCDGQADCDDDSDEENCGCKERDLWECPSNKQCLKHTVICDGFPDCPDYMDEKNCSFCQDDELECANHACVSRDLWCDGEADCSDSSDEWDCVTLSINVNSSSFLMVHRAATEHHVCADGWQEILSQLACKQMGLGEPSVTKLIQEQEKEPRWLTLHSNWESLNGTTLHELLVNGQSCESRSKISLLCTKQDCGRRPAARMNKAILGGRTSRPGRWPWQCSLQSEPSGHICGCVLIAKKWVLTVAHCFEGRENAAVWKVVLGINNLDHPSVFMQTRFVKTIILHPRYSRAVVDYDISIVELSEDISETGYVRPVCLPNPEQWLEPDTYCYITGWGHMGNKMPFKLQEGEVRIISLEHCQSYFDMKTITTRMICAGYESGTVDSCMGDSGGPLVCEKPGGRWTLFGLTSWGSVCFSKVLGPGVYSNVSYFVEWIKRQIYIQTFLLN
# Biological target: T1, corin mutant R801A
# Assay: Corin activation by purified PCSK6 on HEK293 cells, corin mutant R801A
# Format: cell-based
# Details: corin R801A mutant lacking the cleavage site, 2 h
# Description: HEK293 and HL-1 cells expressing recombinant corin in 6-well plates were incubated with 1.5 mL (200 μM) of membrane impermeable Sulfo-NHS-SS-biotin for 5 min. Qi et al., J Biol Chem 286, 20963-20969 (2011). A quenching solution was added to the wells and incubated on ice for 10 min. Cells were lysed in the lysis buffer. Labeled proteins were isolated with avidin-coupled agarose beads and analyzed by Western blotting.
# Stable HEK293 cells were established to produce human PCSK6 with a C-terminal flag tag. The cells were cultured in DMEM with 10% FBS and 600 μg/mL G418. At confluency, the cells were washed with PBS and cultured with Reduced-Serum Medium. After 72 h, the conditioned medium was collected, centrifuged (10 min at 17,000 g) to remove cell debris, and concentrated to ⅕ of the original volume using a Centrifugal filter unit at 4° C. The concentrated medium was incubated with anti-flag M2 affinity bead slurry in a volume ratio of 25:1 on a rotator at 4° C. for 2 h. […] After centrifugation, the supernatant containing purified PCSK6 was collected, and analyzed by SDS-PAGE followed by silver staining and Western blotting.
# Stable HEK293 cells expressing human corin were cultured in 6-well plates in DMEM with 10% FBS and 2 μM monensin. […] After 2 h, cell surface proteins were labeled and corin protein was analyzed by Western blotting.
molecule,measurement,value
"proprotein convertase subtilisin/kexin-6 (protein, listed as Homo sapiens, C-terminal FLAG tag) MPPRAPPAPGPRPPPRAAAATDTAAGAGGAGGAGGAGGPGFRPLAPRPWRWLLLLALPAACSAPPPRPVYTNHWAVQVLGGPAEADRVAAAHGYLNLGQIGNLEDYYHFYHSKTFKRSTLSSRGPHTFLRMDPQVKWLQQQEVKRRVKRQVRSDPQALYFNDPIWSNMWYLHCGDKNSRCRSEMNVQAAWKRGYTGKNVVVTILDDGIERNHPDLAPNYDSYASYDVNGNDYDPSPRYDASNENKHGTRCAGEVAASANNSYCIVGIAYNAKIGGIRMLDGDVTDVVEAKSLGIRPNYIDIYSASWGPDDDGKTVDGPGRLAKQAFEYGIKKGRQGLGSIFVWASGNGGREGDYCSCDGYTNSIYTISVSSATENGYKPWYLEECASTLATTYSSGAFYERKIVTTDLRQRCTDGHTGTSVSAPMVAGIIALALEANSQLTWRDVQHLLVKTSRPAHLKASDWKVNGAGHKVSHFYGFGLVDAEALVVEAKKWTAVPSQHMCVAASDKRPRSIPLVQVLRTTALTSACAEHSDQRVVYLEHVVVRTSISHPRRGDLQIYLVSPSGTKSQLLAKRLLDLSNEGFTNWEFMTVHCWGEKAEGQWTLEIQDLPSQVRNPEKQGKLKEWSLILYGTAEHPYHTFSAHQSRSRMLELSAPELEPPKAALSPSQVEVPEDEEDYTAQSTPGSANILQTSVCHPECGDKGCDGPNADQCLNCVHFSLGSVKTSRKCVSVCPLGYFGDTAARRCRRCHKGCETCSSRAATQCLSCRRGFYHHQEMNTCVTLCPAGFYADESQKNCLKCHPSCKKCVDEPEKCTVCKEGFSLARGSCIPDCEPGTYFDSELIRCGECHHTCGTCVGPGREECIHCAKNFHFHDWKCVPACGEGFYPEEMPGLPHKVCRRCDENCLSCAGSSRNCSRCKTGFTQLGTSCITNHTCSNADETFCEMVKSNRLCERKLFIQFCCRTCLLAG",activation of corin on the cell surface by purified recombinant PCSK6,did not cleave
